Paper PMC5814221

Target: Growth arrest-specific protein 6 (GAS6) (UniProt Q63772)
UniProt Q63772, sequence (Q63772 28-674): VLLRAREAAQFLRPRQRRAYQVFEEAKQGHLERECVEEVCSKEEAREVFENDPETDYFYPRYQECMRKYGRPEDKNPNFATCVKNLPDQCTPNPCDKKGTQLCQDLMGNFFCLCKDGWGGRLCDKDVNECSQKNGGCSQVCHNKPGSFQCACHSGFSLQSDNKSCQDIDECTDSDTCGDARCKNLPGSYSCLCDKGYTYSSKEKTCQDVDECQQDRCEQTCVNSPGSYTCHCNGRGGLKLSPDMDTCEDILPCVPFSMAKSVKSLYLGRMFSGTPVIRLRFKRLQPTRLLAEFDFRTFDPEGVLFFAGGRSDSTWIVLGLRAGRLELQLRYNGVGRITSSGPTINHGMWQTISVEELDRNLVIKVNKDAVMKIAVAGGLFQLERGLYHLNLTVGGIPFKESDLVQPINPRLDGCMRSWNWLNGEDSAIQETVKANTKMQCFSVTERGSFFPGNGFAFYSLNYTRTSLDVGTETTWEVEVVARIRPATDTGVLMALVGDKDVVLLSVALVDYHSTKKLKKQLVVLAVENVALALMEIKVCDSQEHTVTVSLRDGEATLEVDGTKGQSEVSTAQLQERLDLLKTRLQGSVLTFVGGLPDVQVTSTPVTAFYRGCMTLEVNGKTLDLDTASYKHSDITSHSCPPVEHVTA

## AXL-Fc protein fragment (soluble form of AXL) (Fc fusion)
  proliferation of RSC96 cells (WST-1) treated with AXL-Fc, percent decrease after 24 h, 48 h and 72 h (31.3%, 35.1%, 43.1%): 43.1 % decreased
